Data published in paper PMC4479986, “An Alternative Phosphorylation Switch in Integrin β2 (CD18) Tail for Dok1 Binding” (Scientific Reports, 2015).
Values belong to the molecule of their own block, whether it stands above or below them. Square brackets hold non-standard residues; d marks the D form. Ends that are not written are not given here. Peptide text beside a SMILES is read from it. pS = N[C@@H](COP(=O)(O)O)C(=O)O

Tests used:
[1] = target: T1, Dok1 PTB domain (Homo sapiens, UniProt Q99704); test: 15N-1H HSQC NMR chemical shift titration of Dok1 PTB domain with integrin β2 tail peptides; assay type: binding; settings: Table 2; 15N-1H HSQC combined chemical shift perturbation, 0.7 mM 15N-Dok1 PTB domain, 50 mM sodium phosphate pH 6.0, 100 mM NaCl, 2 mM DTT, 20 min equilibration; depletion model fit; Kd ± S.E.; read-out: Dissociation constant Kd
T1 construct: Human Dok1 PTB domain (Q154 – G256; Swiss-Prot Q99704, number as Q1-G103); six His-tag (N); made in house; host or cells: Escherichia coli Rosetta
T1 sequence (Q99704 154-256): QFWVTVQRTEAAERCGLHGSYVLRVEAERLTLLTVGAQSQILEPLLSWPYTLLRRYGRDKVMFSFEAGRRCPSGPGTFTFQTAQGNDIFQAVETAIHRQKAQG
Procedure: Human Dok1 PTB domain (Q154 – G256; Swiss-Prot Q99704, number as Q1-G103) was sub-cloned into the pET14b vector with an N-terminal six His-tag. Escherichia coli Rosetta cells were transformed with the expression plasmid and grown at 37 °C either in LB or M9 medium containing [^15N] ammonium chloride (Cambridge Isotope Laboratories). Expression of recombinant protein was induced by adding 1 mM IPTG to cells (OD600 0.6–0.7) followed by incubation for 6–12 h at 16 °C. Cells were centrifuged and re-suspended in Buffer A (20 mM Tris-HCl buffer, pH 8.0) followed by affinity purification on a Nickel-NTA column (Qiagen). […] Proteins were eluted at a flow rate of 0.5 ml/min and monitored by absorbance at λ = 276 nm.
All NMR experiments were performed on a Bruker DRX 600 MHz spectrometer equipped with an actively shielded cryoprobe. NMR data were processed using the NMRPipe and NMRDraw suite and analysed by Sparky (T.D. Goddard and D.G. Kneller, University of California, San Francisco). […] The stock solutions of the above mentioned peptides were prepared in the same buffer (100 mM NaCl, 2 mM DTT, 50 mM sodium phosphate, pH 6.0) used for the Dok1 PTB domain NMR experiments, ^15N-^1H HSQC spectra were recorded at different protein:peptide molar ratios (1:0.1, 1:0.2, 1:0.3, 1:0.5, 1:1, 1:1.5, 1:2, 1:2.5 and 1:3) for all of the above mentioned peptides except for the unphosphorylated KT15. […]

[2] = Solubility of β2 tail peptide as observed in NMR sample preparation; assay type: physicochemical; settings: at high concentrations, NMR buffer
[3] = tested on: Dok1-CFP / integrin β2-YFP association in K562 cells; test: YFP-photobleach FRET between Dok1-CFP and integrin β2-YFP in K562 cells; assay type: cell-based, human; settings: K562 stably expressing Dok1-CFP, transfected with integrin αL, β2-YFP and CCR5; RANTES 50 ng/ml, 10 min, 37 °C; 39 cells with, 60 without; p < 0.05
Procedure: K562 cells (ATCC, Manassas, VA) were cultured in RPMI1640 full-medium containing 10% (v/v) FBS and antibiotics. Cells (2 × 10^6) were transfected with integrin αL plasmid (9 μg), integrin β2-YFP plasmid (WT or mutant) (9 μg) and Dok1-CFP or CFP plasmid (12 μg) by electroporation using the Neon electroporation kit (Invitrogen) on a MP-100 pipette-type microporator (Invitrogen). YFP-photobleach FRET assay was performed essentially as described. Immunoblottings of transfected K562 lysates were performed using rabbit anti-GFP antibody (Life Technologies, Grand Island, NY), rabbit anti-Dok1 antibody (Abcam, Cambridge, MA) and HRP-conjugated goat anti-rabbit (Avansta, Menlo Park, CA) followed by ECL detection. To generate K562 cells stably expressing Dok1-CFP, cells were transfected with Dok1-CFP plasmid by electroporation followed by serial dilutions into 96-well cell culture microtitre plates to select for stable clones in the presence of antibiotic G418 (0.6 mg/ml). Clones expressing Dok1-CFP were screened by flow cytometry analyses and verified by immunoblotting with anti-GFP antibody (Life Technologies, Grand Island, NY). […] Samples were acquired and examined on a FACSCalibur flow cytometer and data analyzed using the Flowjo software (Tree Star Inc. Ashland, OR). […]

[4] = target: T2, Human Dok1 PTB domain (Q154-G256) (human, UniProt Q99704 154-256); test: NMR titration; 15N-1H HSQC of 15N-labelled Dok1 PTB domain at 0.7 mM, unlabelled peptide added (protein:peptide 1:0.1 to 1:3; KT15 1:0.5 to 1:6); 100 mM NaCl, 2 mM DTT, 50 mM sodium phosphate, pH 6.0; Kd from combined chemical shift changes, depletion model; apparent for KT15; settings: both partners purified
T2 construct: Docking protein 1 (Dok1; p62Dok), human, PTB domain Q154-G256 of Swiss-Prot Q99704. numbers count on: the construct, renumbered Q1-G103 (Q154 = Q1); pET14b vector; no removal of the His tag is described; Residue numbers of the PTB domain in the results (Arg54, Arg69 ...) count on Q1-G103; also called PTB domain of Dok1; source: E. coli Rosetta, purified (Nickel-NTA, gel filtration on Superdex …)
T2 sequence (looked up): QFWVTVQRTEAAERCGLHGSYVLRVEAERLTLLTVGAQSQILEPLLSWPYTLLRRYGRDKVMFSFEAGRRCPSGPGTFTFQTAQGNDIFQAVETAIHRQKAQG

- Kd [1]: 16000 ± 300 µM
Molecule: CC(C)C[C@H](NC(=O)[C@@H]1CCCN1C(=O)[C@H](CC(N)=O)NC(=O)[C@H](CC(=O)O)NC(=O)[C@H](CC(N)=O)NC(=O)[C@H](CC(N)=O)NC(=O)[C@H](Cc1c[nH]c2ccccc12)NC(=O)[C@H](CCC(N)=O)NC(=O)[C@H](CO)NC(=O)[C@@H](N)CCCCN)C(=O)N[C@@H](Cc1ccccc1)C(=O)N[C@@H](CCCCN)C(=O)N[C@@H](CO)C(=O)N[C@@H](C)C(=O)N[C@H](C(=O)O)[C@@H](C)O [KT15] (H-KSQWNNDNPLFKSAT-OH)

- Kd [1]: 189 ± 30 µM
Molecule: CC(C)C[C@H](NC(=O)[C@@H]1CCCN1C(=O)[C@H](CC(N)=O)NC(=O)[C@H](CC(=O)O)NC(=O)[C@H](CC(N)=O)NC(=O)[C@H](CC(N)=O)NC(=O)[C@H](Cc1c[nH]c2ccccc12)NC(=O)[C@H](CCC(N)=O)NC(=O)[C@H](CO)NC(=O)[C@@H](N)CCCCN)C(=O)N[C@@H](Cc1ccccc1)C(=O)N[C@@H](CCCCN)C(=O)N[C@@H](COP(=O)(O)O)C(=O)N[C@@H](C)C(=O)N[C@H](C(=O)O)[C@@H](C)O [pSer756-KT15] (H-KSQWNNDNPLFK[pS]AT-OH)

- Solubility in words [2]: limited solubility
Molecule: KALIHLSDLREYRRFEKEKLKSQWNNDNPLFKSATTTVMNPKFAES [full-length unphosphorylated β2 tail, Synthetic full-length integrin β2 (CD18) cytoplasmic tail, residues 724-769]

B1: RANTES: Chemokine, ligand of CCR5, used to activate cells (Calbiochem) (protein, UniProt P13501 24-91, looked up)
C-C motif chemokine 5: SPYSSDTTPCCFAYIARPLPRAHIKEYFYTSGKCSNPAVVFVTRKNRQVCANPEKKWVREYINSLEMS
- FRET signal Dok1-CFP / integrin β2-YFP compared with untreated cells [3]: significantly lower

- Kd [4]: 215 µM
Molecule: KALIHLSDLREYRRFEKEKLK[pS]QWNNDNPLFKSATTTVMNPKFAES [Full-length integrin β2 tail peptide phosphorylated at Ser745]

- Kd [4]: 98 µM
Molecule: KALIHLSDLREYRRFEKEKLKSQWNNDNPLFK[pS]ATTTVMNPKFAES [Full-length integrin β2 tail peptide phosphorylated at Ser756]

- Kd [4]: 8490 µM
B2: KT18EE, integrin β2 tail fragment (K742-T759) with Ser745 and Ser756 substituted by Glu (peptide)
peptide: KLKEQWNNDNPLFKEATT
notes: also called Ser to Glu substituted KT18 peptide; Ser to Glu substituted β2 tail peptide; source: synthetic peptide, bought: GLBioChem, Shanghai (purity >95%)
